This is an account of results in patent publication US20170079251.

What all share (experiment): cell_activity
The test system of data set [1] is btPRLR 9.13 TALEN left (synthetic). The conditions noted are these: pair value; printed RVDs lack one HD relative to target.
Data set [2] relates to btPRLR 9.13 TALEN right (synthetic). The conditions noted are these: pair value, bovine fibroblasts.
Data set [3] relates to btPRLR 9.11 TALEN left (synthetic). The conditions noted are these: pair inactive, bovine fibroblasts.
Data set [4] relates to btPRLR 9.11 TALEN right (synthetic). The conditions noted are these: pair inactive, bovine fibroblasts.
The subject of data set [5] is btPRLR 9.14 TALEN left (synthetic). The conditions noted are these: pair inactive, bovine fibroblasts.
The subject of data set [6] is btPRLR 9.14 TALEN right (synthetic). The conditions noted are these: pair inactive, bovine fibroblasts.
Data set [7] deals with btPRLR 9.9 TALEN left (synthetic). The conditions noted are these: pair inactive, bovine fibroblasts.
The test system of data set [8] is btPRLR 9.9 TALEN right (synthetic). The conditions noted are these: pair inactive, bovine fibroblasts.
The test system of data set [9] is btPRLR 9.7 TALEN left (synthetic). The conditions noted are these: pair inactive, bovine fibroblasts.
Data set [10] relates to btPRLR 9.7 TALEN right (synthetic). The conditions noted are these: pair inactive; printed RVDs read the sense strand.
For data set [11], the system named is btPRLR 9.2 TALEN left (synthetic). The conditions noted are these: pair inactive, bovine fibroblasts.
The subject of data set [12] is btPRLR 9.2 TALEN right (synthetic). The conditions noted are these: pair inactive, bovine fibroblasts.
In data set [13] the test system is btPRLR 9.4 TALEN left (synthetic). The conditions noted are these: pair inactive, but same left RVDs active in 9.5.
For data set [14], the system named is btPRLR 9.4 TALEN right (synthetic). The conditions noted are these: pair inactive, bovine fibroblasts.
The test system of data set [15] is btPRLR 9.5 TALEN left (synthetic). The conditions noted are these: pair value, bovine fibroblasts.
The test system of data set [16] is btPRLR 9.5 TALEN right (synthetic). The conditions noted are these: pair value, bovine fibroblasts.
For data set [17], the system named is btPRLR 9.10 TALEN left (synthetic). The conditions noted are these: pair inactive, bovine fibroblasts.
In data set [18] the test system is btPRLR 9.10 TALEN right (synthetic). The conditions noted are these: pair inactive, bovine fibroblasts.
In data set [19] the test system is btPRLR 9.6 TALEN left (synthetic). The conditions noted are these: pair inactive, bovine fibroblasts.
In data set [20] the test system is btPRLR 9.6 TALEN right (synthetic). The conditions noted are these: pair inactive; one RVD printed as N, read as NN.
Data set [21] deals with btPRLR 9.1 TALEN left (synthetic). The conditions noted are these: pair value, bovine fibroblasts, TALEN mRNA.
Data set [22] deals with btPRLR 9.1 TALEN right (synthetic). The conditions noted are these: pair value, bovine fibroblasts, TALEN mRNA.
Data set [23] has as its system btPRLR 9.3 TALEN left (synthetic). The conditions noted are these: pair inactive, bovine fibroblasts.
Data set [24] relates to btPRLR 9.3 TALEN right (synthetic). The conditions noted are these: pair inactive, bovine fibroblasts.
In data set [25] the test system is btPRLR 9.8 TALEN left (synthetic). The conditions noted are these: pair value, bovine fibroblasts; also active in zygotes (Table VI).
The test system of data set [26] is btPRLR 9.8 TALEN right (synthetic). The conditions noted are these: pair value, bovine fibroblasts; also active in zygotes (Table VI).
Data set [27] relates to btPRLR 9.12 TALEN left (synthetic). The conditions noted are these: pair value, bovine fibroblasts; also active in zygotes (Table VI).
Data set [28] relates to btPRLR 9.12 TALEN right (synthetic). The conditions noted are these: pair value, bovine fibroblasts; also active in zygotes (Table VI).

Sequence “AAAAGCCTCAAAAACCATTGAAACTGGCAGGGAAGGAAAGGCAACCAAGCAG (double strand) [9.13 left site]” registered an activity in data set [1] of 6.8 % Cel-I.

Take “AAAAGCCTCAAAAACCATTGAAACTGGCAGGGAAGGAAAGGCAACCAAGCAG (double strand) [9.13 right site]”: in [2], the activity was determined as 6.8 % Cel-I.

For the sequence “CAAAAACCATTGAAACTGGCAGGGAAGGAAAGGCAACCAAGCAGAGGGAGTC (double strand) [9.11 left site]”, the activity in data set [3] came out at 0 % Cel-I.

For the sequence “CAAAAACCATTGAAACTGGCAGGGAAGGAAAGGCAACCAAGCAGAGGGAGTC (double strand) [9.11 right site]”, the activity in [4] amounted to 0 % Cel-I.

In data set [5], “CAAAAACCATTGAAACTGGCAGGGAAGGAAAGGCAACCAAGCAGAGGGAGTC (double strand) [9.14 left site]” displayed an activity of 0 % Cel-I.

“CAAAAACCATTGAAACTGGCAGGGAAGGAAAGGCAACCAAGCAGAGGGAGTC (double strand) [9.14 right site]” registered an activity in data set [6] of 0 % Cel-I.

“CAGAAGGCTGCAGTTCCAAGCCTGACCAAGACACGGTGTGGCCACG (double strand) [9.9 left site]” yielded an activity in data set [7] of 0 % Cel-I.

Consider “CAGAAGGCTGCAGTTCCAAGCCTGACCAAGACACGGTGTGGCCACG (double strand) [9.9 right site]”, for which the activity in data set [8] was determined as 0 % Cel-I.

For the sequence “CAGACCAACATGCTTTAAAAGCCTCAAAAACCATTGAAACTGGCAG (double strand) [9.7 left site]”, the activity in data set [9] came out at 0 % Cel-I.

Sequence “CAGACCAACATGCTTTAAAAGCCTCAAAAACCATTGAAACTGGCAG (double strand) [9.7 right site]” yielded an activity in [10] of 0 % Cel-I.

On to “GCTTTAAAAGCCTCAAAAACCATTGAAACTGGCAGGGAAGGAAAGGC (double strand) [9.2 left site]”, for which the activity in data set [11] worked out at 0 % Cel-I.

“GCTTTAAAAGCCTCAAAAACCATTGAAACTGGCAGGGAAGGAAAGGC (double strand) [9.2 right site]” gave an activity in data set [12] of 0 % Cel-I.

Take “GCTTTAAAAGCCTCAAAAACCATTGAAACTGGCAGGGAAGGAAAGGCAACCA (double strand) [9.4 left site]”: the activity in data set [13] came to 0 % Cel-I.

In [14], “GCTTTAAAAGCCTCAAAAACCATTGAAACTGGCAGGGAAGGAAAGGCAACCA (double strand) [9.4 right site]” had an activity of 0 % Cel-I.

With “GCTTTAAAAGCCTCAAAAACCATTGAAACTGGCAGGGAAGGAAAGGCAACCA (double strand) [9.5 left site]”, in [15], the activity was 13.9 % Cel-I.

“GCTTTAAAAGCCTCAAAAACCATTGAAACTGGCAGGGAAGGAAAGGCAACCA (double strand) [9.5 right site]” returned an activity in data set [16] of 13.9 % Cel-I.

“GGCCACGACCCCAAGACAAAACCCCCTTGATCTCTGCTAAACCCTTGGAAT (double strand) [9.10 left site]” yielded an activity in data set [17] of 0 % Cel-I.

“GGCCACGACCCCAAGACAAAACCCCCTTGATCTCTGCTAAACCCTTGGAAT (double strand) [9.10 right site]” had an activity in data set [18] of 0 % Cel-I.

“GGCCGGCACCACAGCCACTTCGCTGGACCAAACAGACCAACATGCTTT (double strand) [9.6 left site]” yielded an activity in data set [19] of 0 % Cel-I.

“GGCCGGCACCACAGCCACTTCGCTGGACCAAACAGACCAACATGCTTT (double strand) [9.6 right site]” gave an activity in data set [20] of 0 % Cel-I.

With “GGCCGGCACCACAGCCACTTCGCTGGACCAAACAGACCAACATGCTTTA (double strand) [9.1 left site]”, the activity in [21] was determined as 20.9 % Cel-I.

The sequence “GGCCGGCACCACAGCCACTTCGCTGGACCAAACAGACCAACATGCTTTA (double strand) [9.1 right site]” displayed an activity in data set [22] of 20.9 % Cel-I.

Turning to “GGCCGGCACCACAGCCACTTCGCTGGACCAAACAGACCAACATGCTTTAA (double strand) [9.3 left site]”, in [23], the activity was 0 % Cel-I.

With “GGCCGGCACCACAGCCACTTCGCTGGACCAAACAGACCAACATGCTTTAA (double strand) [9.3 right site]”, the activity in data set [24] was 0 % Cel-I.

As to “GTGGCCACGACCCCAAGACAAAACCCCCTTGATCTCTGCTAAACCCTTGG (double strand) [9.8 left site]”, the activity in [25] stood at 10.1 % Cel-I.

“GTGGCCACGACCCCAAGACAAAACCCCCTTGATCTCTGCTAAACCCTTGG (double strand) [9.8 right site]” displayed an activity in data set [26] of 10.1 % Cel-I.

In data set [27], “TCGCTGGACCAAACAGACCAACATGCTTTAAAAGCCTCAAAAACCATTG (double strand) [9.12 left site]” registered an activity of 15.9 % Cel-I.

Take “TCGCTGGACCAAACAGACCAACATGCTTTAAAAGCCTCAAAAACCATTG (double strand) [9.12 right site]”: in [28], the activity is 15.9 % Cel-I.
